How the values were obtained:
MC38 tumor cells = assay type: in vivo, C57BL/6 mice; conditions: two hours after intravenous 10 nmol DOTA, mice injected intratumorally with Sal-o-DBP
Procedure: To determine the biodistribution of Sal-o-DBP, three groups of six-week old C57BL/6 mice were injected subcutaneously with 1×10^5 MC38 tumor cells. When tumors reached approximately 200 mm^3, the mice were injected intravenously or intratumorally with 1×10^7 CFU of Sal-o-DBP in 50 μL of saline, or intravenously with saline. Sixty hours after bacterial injection, mice were injected intraperitoneally (IP) with 100 mg arabinose in 400 μL saline. Sixty-six hours after bacterial injection mice were injected intravenously with 10 nmol DOTA in 50 μL of PBS. Two hours after DOTA injection, mouse tumors, spleens, livers, and kidneys were collected for biodistribution analysis. The organs were weighed before being homogenized in equal volumes of sterile PBS. Serial dilutions of the organ slurry were prepared (tumor 10^−5, spleen, liver, and kidney 10-2) and 50 μL of the dilutions were plated on LB agar plates containing 100 μg/mL carbenicillin and incubated overnight at 37° C. Colonies were counted and the total CFU/g was determined by the formula (colony count)×(dilution factor)[…].
To determine the biodistribution of DOTA, the organs were analyzed via inductively coupled plasma mass spectrometry (ICP-MS). Fifty μL of Iridium standard was added to each sample. The organ and water mixture was mixed with one mL of 3:1 nitric acid: hydrogen peroxide overnight. […]

[1] = cited from earlier work

Molecule: O=C(O)CN1CCN(CC(=O)O)CCN(CC(=O)O)CCN(CC(=O)O)CC1 [DOTA, 2,2′,2″,2″′-(1,4,7,10-tetraazacyclododecane-1,4,7,10-tetrayl)tetraacetic acid]
- biodistribution of DOTA in tumor, liver, spleen, and kidney (MC38 tumor cells): strong levels in the tumor and kidneys with some DOTA remaining in the liver and spleen

B1: 2D12.5: monoclonal anti-DOTA(radiometal) antibody / scFv, SEQ ID NO: 1 (protein)
scFv: QVKLQESGPGLVQPSQSLSITCTVSGFSLTDYGVHWVRQSPGKGLEWLGVIWSGGGTAYTAAFISRLNIYKDNSKNQVFFEMNSLQANDTAMYYCARRGSYPYNYFDVWGQGTTVTVSSGGGGSGGGGSGGGGSQAVVTQESALTTSPGETVTLTCRSSTGAVTTSNYANWVQEKPDHLFTGLIGGNNNRPPGVPARFSGSLIGDKAALTIAGTQTEDEAIYFCALWYSNHWVFGGGTRLTVLG
modifications: 2D12.5 scFv
- affinity for DOTA chelates of yttrium and lutetium ([1]; monoclonal anti-DOTA(radiometal) antibody): low nanomolar affinity
- Kd ([1]; pure scFv, DOTA-biotin-Y, read-out: binding kinetics of free 2D12.5 to DOTA-biotin-Y): 3.7 nM
